In patent publication US20210024654A1 (AMPHIVENA THERAPEUTICS, published 2021) one finds KD ratio CynoCD33/huCD33 data, which are given here for eight molecules.

First the molecules themselves.
B1: CD33/CD3 tandem diabody 02 (bispecific antibody)
chain: DIQMTQSPSSLSASVGDRVTITCRSSTGAVTTSNYANWVQQKPGKAPKGLIGGTNKRAPGVPARFSGSGSGTDFTLTISSLQPEDFATYYCALWYSNLWVFGQGTKVEIKGGSGGSQVQLVQSGAEVKKPGASVKVSCKASGYTFTSYDINWVRQAPGQGLEWMGWMNPNSGNTGFAQKFQGRVTMTRDTSTSTVYMELSSLRSEDTAVYYCARDRAVTDYYYGMDVWGQGTLVTVSSGGSGQSVLTQPPSASGTPGQRVTISCSGSRSNIGSNTVNWYQQLPGTAPKLLIYGNNQRPSGVPDRFSGSKSGTSASLAISGLQSEDEADYYCATWDDSLIGWVFGGGTKLTVLGGSGGSEVQLVESGGGLVQPGGSLRLSCAASGFTFSTYAMNWVRQAPGKGLEWVGRIRSKYNNYATYYADSVKDRFTISRDDSKNSLYLQMNSLKTEDTAVYYCARHGNFGNSYVSWFAYWGQGTLVTVSSAAAGSHHHHHH
B2: CD33/CD3 tandem diabody 04 (bispecific antibody)
chain: DIQMTQSPSSLSASVGDRVTITCRSSTGAVTTSNYANWVQQKPGKAPKGLIGGTNKRAPGVPARFSGSGSGTDFTLTISSLQPEDFATYYCALWYSNLWVFGQGTKVEIKGGSGGSQVQLVQSGAEVKKPGASVKVSCKASGYTFTSYDINWVRQAPGQGLEWMGWMNPNSGNTGFAQKFQGRVTMTRDTSTSTVYMELSSLRSEDTAVYYCARDRANTDYSLGMDVWGQGTLVTVSSGGSGQSVLTQPPSASGTPGQRVTISCSGSRSNIGSNTVNWYQQLPGTAPKLLIYGNNQRPSGVPDRFSGSKSGTSASLAISGLQSEDEADYYCATWDDSLIGWVFGGGTKLTVLGGSGGSEVQLVESGGGLVQPGGSLRLSCAASGFTFSTYAMNWVRQAPGKGLEWVGRIRSKYNNYATYYADSVKDRFTISRDDSKNSLYLQMNSLKTEDTAVYYCARHGNFGNSYVSWFAYWGQGTLVTVSSAAAGSHHHHHH
B3: CD33/CD3 tandem diabody 03 (bispecific antibody)
chain: DIQMTQSPSSLSASVGDRVTITCRSSTGAVTTSNYANWVQQKPGKAPKGLIGGTNKRAPGVPARFSGSGSGTDFTLTISSLQPEDFATYYCALWYSNLWVFGQGTKVEIKGGSGGSQVQLVQSGAEVKKPGASVKVSCKASGYTFTSYDINWVRQAPGQGLEWMGWMNPNSGNTGFAQKFQGRVTMTRDTSTSTVYMELSSLRSEDTAVYYCARDRANTDYSFGMDVWGQGTLVTVSSGGSGQSVLTQPPSASGTPGQRVTISCSGSRSNIGSNTVNWYQQLPGTAPKLLIYGNNQRPSGVPDRFSGSKSGTSASLAISGLQSEDEADYYCATWDDSLIGWVFGGGTKLTVLGGSGGSEVQLVESGGGLVQPGGSLRLSCAASGFTFSTYAMNWVRQAPGKGLEWVGRIRSKYNNYATYYADSVKDRFTISRDDSKNSLYLQMNSLKTEDTAVYYCARHGNFGNSYVSWFAYWGQGTLVTVSSAAAGSHHHHHH
B4: CD33/CD3 tandem diabody 22 (bispecific antibody)
chain: DIQMTQSPSSLSASVGDRVTITCRSSTGAVTTSNYANWVQQKPGKAPKALIGGTNKRAPGVPSRFSGSLIGDKATLTISSLQPEDFATYYCALWYSNLWVFGQGTKVEIKGGSGGSQVQLVQSGAEVKKPGSSVKVSCKASGGTFSSYGISWVRQAPGQGLEWMGGIIPIFGSAHYAQKFQGRVTITADESTSTAYMELSSLRSEDTAVYYCAREYYYDSSEWAFDIWGQGTLVTVSSGGSGQSVLTQPPSASGTPGQRVTISCSGSSSNIGSNTVKWYQQLPGTAPKLLIYSNNQRSSGVPDRFSGSKSGSSASLAISGLQSEDEADYYCAAWDDSLNGYVFGGGTKLTVLGGSGGSEVQLVESGGGLVQPGGSLRLSCAASGFTFSTYAMNWVRQAPGKGLEWVGRIRSKYNNYATYYADSVKDRFTISRDDSKNSLYLQMNSLKTEDTAVYYCARHGNFGNSYVSYFAYWGQGTLVTVSSAAAGSHHHHHH
B5: CD33/CD3 tandem diabody 05 (bispecific antibody)
chain: DIQMTQSPSSLSASVGDRVTITCRSSTGAVTTSNYANWVQQKPGKAPKGLIGGTNKRAPGVPARFSGSGSGTDFTLTISSLQPEDFATYYCALWYSNLWVFGQGTKVEIKGGSGGSQVQLVQSGAEVKKPGASVKVSCKASGYTFTSYDINWVRQAPGQGLEWMGWMNPNSGNTGFAQKFQGRVTMTRDTSTSTVYMELSSLRSEDTAVYYCARDRANTDYSFGMDVWGQGTLVTVSSGGSGGQSVLTQPPSASGTPGQRVTISCSGSRSNIGSNTVNWYQQLPGTAPKLLIYGNNQRPSGVPDRFSGSKSGTSASLAISGLQSEDEADYYCATWDDSLIGWVFGGGTKLTVLGGSGGSEVQLVESGGGLVQPGGSLRLSCAASGFTFSTYAMNWVRQAPGKGLEWVGRIRSKYNNYATYYADSVKDRFTISRDDSKNSLYLQMNSLKTEDTAVYYCARHGNFGNSYVSWFAYWGQGTLVTVSSAAAGSHHHHHH
B6: CD33/CD3 tandem diabody 06 (bispecific antibody)
chain: DIQMTQSPSSLSASVGDRVTITCRSSTGAVTTSNYANWVQQKPGKAPKGLIGGTNKRAPGVPARFSGSGSGTDFTLTISSLQPEDFATYYCALWYSNLWVFGQGTKVEIKGGSGGSQVQLVQSGAEVKKPGASVKVSCKASGYTFTSYDINWVRQAPGQGLEWMGWMNPNSGNTGFAQKFQGRVTMTRDTSTSTVYMELSSLRSEDTAVYYCARDRANTDYSLGMDVWGQGTLVTVSSGGSGGQSVLTQPPSASGTPGQRVTISCSGSRSNIGSNTVNWYQQLPGTAPKLLIYGNNQRPSGVPDRFSGSKSGTSASLAISGLQSEDEADYYCATWDDSLIGWVFGGGTKLTVLGGSGGSEVQLVESGGGLVQPGGSLRLSCAASGFTFSTYAMNWVRQAPGKGLEWVGRIRSKYNNYATYYADSVKDRFTISRDDSKNSLYLQMNSLKTEDTAVYYCARHGNFGNSYVSWFAYWGQGTLVTVSSAAAGSHHHHHH
B7: CD33/CD3 tandem diabody 24 (bispecific antibody)
chain: DIQMTQSPSSLSASVGDRVTITCRSSTGAVTTSNYANWVQQKPGKAPKALIGGTNKRAPGVPSRFSGSLIGDKATLTISSLQPEDFATYYCALWYSNLWVFGQGTKVEIKGGSGGSQVQLVQSGAEVKKPGSSVKVSCKASGGTFDSYAISWVRQAPGQGLEWMGGIIPIFGSAHYSQKFQGRVTITADESTSTAYMELSSLRSEDTAVYYCAREYYYDSSEWAFDIWGQGTLVTVSSGGSGQSVLTQPPSASGTPGQRVTISCSGSSSNIGDNVVNWYQQLPGTAPKLLIYSTNKRPSGVPDRFSGSKSGSSASLAISGLQSEDEADYYCAAWDDSLSAYVFGGGTKLTVLGGSGGSEVQLVESGGGLVQPGGSLRLSCAASGFTFSTYAMNWVRQAPGKGLEWVGRIRSKYNNYATYYADSVKDRFTISRDDSKNSLYLQMNSLKTEDTAVYYCARHGNFGNSYVSYFAYWGQGTLVTVSSAAAGSHHHHHH
B8: CD33/CD3 tandem diabody 23 (bispecific antibody)
chain: DIQMTQSPSSLSASVGDRVTITCRSSTGAVTTSNYANWVQQKPGKAPKGLIGGTNKRAPGVPSRFSGSLIGTDFTLTISSLQPEDFATYYCALWYSNLWVFGQGTKVEIKGGSGGSQVQLVQSGAEVKKPGSSVKVSCKASGGTFSSYGISWVRQAPGQGLEWMGGIIPIFGSAHYAQKFQGRVTITADESTSTAYMELSSLRSEDTAVYYCAREYYYDSSEWAFDIWGQGTLVTVSSGGSGQSVLTQPPSASGTPGQRVTISCSGSSSNIGSNTVKWYQQLPGTAPKLLIYSNNQRSSGVPDRFSGSKSGSSASLAISGLQSEDEADYYCAAWDDSLNGYVFGGGTKLTVLGGSGGSEVQLVESGGGLVQPGGSLRLSCAASGFTFSTYAMNWVRQAPGKGLEWVGRIRSKYNNYATYYADSVKDRFTISRDDSKNSLYLQMNSLKTEDTAVYYCARHGNFGNSYVSWFAYWGQGTLVTVSS

The target of this assay is cynomolgus CD33 (cynomolgus). Put plainly: flow cytometry KDs on CHO cells, cyno CD33 / human CD33. (In flow cytometry, cells or beads pass a laser one at a time.)
Take B1: the KD ratio CynoCD33/huCD33 is 1.1.

For the molecule B2, the KD ratio CynoCD33/huCD33 came out at 1.1.

B3: the KD ratio CynoCD33/huCD33 came out at 0.6.

With B4, the KD ratio CynoCD33/huCD33 was 0.6.

With B5, the KD ratio CynoCD33/huCD33 was found to be 0.8.

As for B6, the KD ratio CynoCD33/huCD33 turned out to be 0.8.

Consider B7, for which the KD ratio CynoCD33/huCD33 stood at 1.8.

For B8, the KD ratio CynoCD33/huCD33 worked out at 1.9.
